8 molecules from patent US20140154255A1 (AbbVie / Abbott, published 2014) can be followed below.

Assay [1] has as its target T1, human VEGF-A residues 27-191 of Accession #AAV38412 (human, UniProt P15692 27-191).
T1 construct: range 27-191
As to the kind of experiment: BIAcore SPR.

In assay [2] the target is T2, VEGF (R&D systems, Minneapolis, Minn.) (UniProt P15692-4 27-191, limits assumed). As to the kind of experiment: BIAcore SPR, mutant/WT. On the procedure: (§1) RL was kept low to minimize avidity due to the dimeric nature of VEGF. No capture of the antibody was made on the reference surface to serve as a negative control. Subsequently, VEGF was injected to all flow cells at a flow rate of 50 μL/min for two minutes to monitor association followed by a 25-minute flow of HBS-P running buffer (10 mM HEPES, 150 mM sodium chloride, 0.005% P-20, pH 7.4) to monitor the dissociation phase. At each cycle, VEGF, in 6 different concentrations of VEGF ranging between 0 nM and 512 nM and at four-fold increments, was injected over the surface. […] Binding data were fit to the 1:1 Langmuir model to extract binding constants from the BIAevaluate software. Double referencing was applied in each analysis to eliminate background responses from the reference surface and buffer only control. All the binding kinetics data were analyzed at least three separate determinations.

In assay [3] the target is T2, VEGF (R&D systems, Minneapolis, Minn.). As to the kind of experiment: BIAcore SPR, improvement over WT. On the procedure:
as §1
In general terms: SPR reads the build-up and loss of mass on a sensor chip optically.

Assay [4] has the same target. As to the kind of experiment: BIAcore SPR, WT/mutant. On the procedure: as §1
Assay [5] concerns the target T3, unlabeled human VEGF (ELISA coat) (human, UniProt P15692-4 27-191, limits assumed). As to the kind of experiment: ELISA 1 hr, EC50 WT/EC50 mutant. A general note: ELISA stands for enzyme-linked immunosorbent assay.
Assay [6] deals with T1, human VEGF-A residues 27-191 of …. As to the kind of experiment: BIAcore SPR, KD WT/KD mutant.
Assay [7] deals with T3, unlabeled human VEGF (ELISA coat). As to the kind of experiment: ELISA overnight, EC50 WT/EC50 mutant.
For assay [8], the target named is T2, VEGF (R&D systems, Minneapolis, Minn.). As to the kind of experiment: BIAcore SPR. How it is done: as §1
Assay [9] has as its target T1, human VEGF-A residues 27-191 of …. As to the kind of experiment: SS DLL4-VEGF DVD-Ig format; BIAcore by paragraph 262. How it is done: The binding kinetics and affinity of the antibodies for VEGF (human VEGF-A residues 27-191 of Accession #AAV38412) was determined by using a BIAcore T200 surface plasmon resonance system (BIAcore, GE Healthcare, Piscataway, N.J.). Coupling running buffer was HBS-EP+ running buffer (10 mM HEPES, 150 mM sodium chloride, 3 mM EDTA 0.05% P-20, pH 7.4); assay running buffer was HBS-EP+ with 300 mM sodium chloride and 0.1 mg/mL BSA (Sigma A7906). Polyclonal goat anti-human Fc (Thermo Scientific prod#31125) was first immobilized to the biosensor surface in 10 mM sodium acetate, pH 4.5 using standard BIAcore amine coupling reagents (N-ethyl-N′-dimethylamino-propylcarbodiimide, EDC; N-hydroxysuccinimide, NHS; and ethanolamine HCl, pH 8.5). For binding kinetics assay a series of cycles were performed, each cycle consisted of 1) mAb capture, 2) Ag or buffer injection, 3) dissociation phase and 4) regeneration. Briefly, anti-VEGF antibodies were captured on parallel surfaces at a low flow rate of 10 μL/min. Capture levels were kept low to minimize avidity due to the dimeric nature of VEGF. No capture of the antibody was made on the reference surface to serve for primary referencing and as a negative control. Subsequently, VEGF or buffer only was injected to all flow cells at a flow rate of 80 μL/min for three minutes to monitor association followed by a 20-minute flow of assay rinning buffer at a flow rate of 80 μL/min to monitor dissociation. […] At the end of each cycle the surface was regenerated with 10 mM glycine, pH 1.5 at a flow rate of 60 μL/min in pulses of 60 and 10 sec. Binding data were fit to the 1:1 Langmuir model with mass transport term included using Biacore T200 Evaluation Software to determine the binding constants.

T3 sequence (P15692 other isoform, or with tags, fused parts or gaps limits assumed): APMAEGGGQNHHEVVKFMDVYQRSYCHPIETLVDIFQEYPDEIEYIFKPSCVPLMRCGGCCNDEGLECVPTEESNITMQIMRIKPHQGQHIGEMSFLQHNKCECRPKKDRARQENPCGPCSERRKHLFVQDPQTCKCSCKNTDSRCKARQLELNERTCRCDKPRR
T1 sequence (P15692 other isoform, or with tags, fused parts or gaps limits assumed): as above
T2 sequence (P15692 other isoform, or with tags, fused parts or gaps limits assumed): as above

B1: 93 (antibody, human IgG1, V domains shown)
VH: EVQLVESGGGLVQPGGSLRLSCAASGYTFTNYGMNWVRQAPGKGLEWVGWINTYTGEPTYAADFKRRFTFSLDTSKSTAYLQMNSLRAEDTAVYYCAKYPEYYGSSHWYFDVWGQGTLVTVSS
VL: DIQMTQSPSSLSASVGDRVTITCSASQDISNYLNWYQQKPGKAPKVLIYFTSSLHSGVPSRFSGSGSGTDFTLTISSLQPEDFATYYCQQYSTVPWTFGQGTKVEIKR
In assay [1], B1 yielded a Kd of 1.59 nM, a koff of 0.000358 s⁻¹ and a kon of 225000 M⁻¹ s⁻¹. Besides, the Δkon in assay [2] came to 1.6 fold. Moreover, the ΔKD in [3] stood at 2.6 fold. This molecule had a Δkoff in assay [4] of 1.6 fold. Moreover, the “ELISA 1hr binding” value in assay [5] turned out to be 4.3 fold. The molecule also registered an affinity improvement in assay [6] of 0.3 fold. Also, the ELISA o/n binding in assay [7] turned out to be 3.6 fold. Besides, in assay [8], binding was characterised by a dissociation constant (Kd) of 0.761 nM, the koff turned out to be 0.000225 s⁻¹ and the kon was determined as 292000 M⁻¹ s⁻¹.

B2: 95 (antibody, human IgG1, V domains shown)
VH: EVQLVESGGGLVQPGGSLRLSCAASGYTFTNYGMNWVRQAPGKGLEWVGWINTYTGEPTYAADFKRRFTFSLDTSKSTAYLQMNSLRAEDTAVYYCAKYPDYYGSSHWYFDVWGQGTLVTVSS
VL: DIQMTQSPSSLSASVGDRVTITCSASQDISNYLNWYQQKPGKAPKVLIYFTSSLHSGVPSRFSGSGSGTDFTLTISSLQPEDFATYYCQQYSTVPWTFGQGTKVEIKR
As to B2, in assay [1], the Kd was determined as 1.3 nM, the koff worked out at 0.000351 s⁻¹ and the kon amounted to 270000 M⁻¹ s⁻¹. Moreover, the Δkon in assay [2] was determined as 1.5 fold. In assay [3], this molecule registered a ΔKD of 1.3 fold. The same molecule gave a Δkoff in [4] of 0.9 fold. The “ELISA 1hr binding” value in assay [5] was determined as 4.5 fold. In assay [6], this molecule gave an affinity improvement of 0.4 fold. Moreover, in assay [7], the ELISA o/n binding is 3 fold. Further, in [8], the Kd was 1.54 nM, the koff was 0.000396 s⁻¹ and the kon was determined as 262000 M⁻¹ s⁻¹.

B3: E 56 Q (bispecific antibody)
VH: EVQLVESGGGLVQPGGSLRLSCAASGFTFSNFPMAWVRQAPGKGLEWVATISSSDGTTYYRDSVKGRFTISRDNAKNSLYLQMNSLRAEDTAVYYCARGYYNSPFAYWGQGTLVTVSSASTKGPEVQLVESGGGLVQPGGSLRLSCAASGYTFTNYGMNWVRQAPGKGLEWVGWINTYTGQPTYAADFKRRFTFSLDTSKSTAYLQMNSLRAEDTAVYYCAKYPHYYGSSHWYFDVWGQGTLVTVSS
VL: DIQMTQSPSSLSASVGDRVTITCRASEDIYSNLAWYQQKPGKAPKLLIYDTNNLADGVPSRFSGSGSGTDFTLTISSLQPEDFATYYCQQYNNYPPTFGQGTKLEIKRTVAAPDIQMTQSPSSLSASVGDRVTITCSASQDISNYLNWYQQKPGKAPKVLIYFTSSLHSGVPSRFSGSGSGTDFTLTISSLQPEDFATYYCQQYSTVPWTFGQGTKVEIK
notes: also called SS DLL4-VEGF DVD-Ig variant E56Q
In the case of B3, the “Affinity relative to WT” value in assay [9] amounted to 0.7 fold.

B4: G 55 Q (bispecific antibody)
VH: EVQLVESGGGLVQPGGSLRLSCAASGFTFSNFPMAWVRQAPGKGLEWVATISSSDGTTYYRDSVKGRFTISRDNAKNSLYLQMNSLRAEDTAVYYCARGYYNSPFAYWGQGTLVTVSSASTKGPEVQLVESGGGLVQPGGSLRLSCAASGYTFTNYGMNWVRQAPGKGLEWVGWINTYTQEPTYAADFKRRFTFSLDTSKSTAYLQMNSLRAEDTAVYYCAKYPHYYGSSHWYFDVWGQGTLVTVSS
VL: DIQMTQSPSSLSASVGDRVTITCRASEDIYSNLAWYQQKPGKAPKLLIYDTNNLADGVPSRFSGSGSGTDFTLTISSLQPEDFATYYCQQYNNYPPTFGQGTKLEIKRTVAAPDIQMTQSPSSLSASVGDRVTITCSASQDISNYLNWYQQKPGKAPKVLIYFTSSLHSGVPSRFSGSGSGTDFTLTISSLQPEDFATYYCQQYSTVPWTFGQGTKVEIK
notes: also called SS DLL4-VEGF DVD-Ig variant G55Q
Turning to B4, the “Affinity relative to WT” value in assay [9] worked out at 0.9 fold.

B5: E 56 T (bispecific antibody)
VH: EVQLVESGGGLVQPGGSLRLSCAASGFTFSNFPMAWVRQAPGKGLEWVATISSSDGTTYYRDSVKGRFTISRDNAKNSLYLQMNSLRAEDTAVYYCARGYYNSPFAYWGQGTLVTVSSASTKGPEVQLVESGGGLVQPGGSLRLSCAASGYTFTNYGMNWVRQAPGKGLEWVGWINTYTGTPTYAADFKRRFTFSLDTSKSTAYLQMNSLRAEDTAVYYCAKYPHYYGSSHWYFDVWGQGTLVTVSS
VL: DIQMTQSPSSLSASVGDRVTITCRASEDIYSNLAWYQQKPGKAPKLLIYDTNNLADGVPSRFSGSGSGTDFTLTISSLQPEDFATYYCQQYNNYPPTFGQGTKLEIKRTVAAPDIQMTQSPSSLSASVGDRVTITCSASQDISNYLNWYQQKPGKAPKVLIYFTSSLHSGVPSRFSGSGSGTDFTLTISSLQPEDFATYYCQQYSTVPWTFGQGTKVEIK
notes: also called SS DLL4-VEGF DVD-Ig variant E56T
With B5, the “Affinity relative to WT” value in assay [9] was 0.8 fold.

B6: N 31 G (bispecific antibody)
VH: EVQLVESGGGLVQPGGSLRLSCAASGFTFSNFPMAWVRQAPGKGLEWVATISSSDGTTYYRDSVKGRFTISRDNAKNSLYLQMNSLRAEDTAVYYCARGYYNSPFAYWGQGTLVTVSSASTKGPEVQLVESGGGLVQPGGSLRLSCAASGYTFTGYGMNWVRQAPGKGLEWVGWINTYTGEPTYAADFKRRFTFSLDTSKSTAYLQMNSLRAEDTAVYYCAKYPHYYGSSHWYFDVWGQGTLVTVSS
VL: DIQMTQSPSSLSASVGDRVTITCRASEDIYSNLAWYQQKPGKAPKLLIYDTNNLADGVPSRFSGSGSGTDFTLTISSLQPEDFATYYCQQYNNYPPTFGQGTKLEIKRTVAAPDIQMTQSPSSLSASVGDRVTITCSASQDISNYLNWYQQKPGKAPKVLIYFTSSLHSGVPSRFSGSGSGTDFTLTISSLQPEDFATYYCQQYSTVPWTFGQGTKVEIK
notes: also called SS DLL4-VEGF DVD-Ig variant N31G
With B6, the “Affinity relative to WT” value in [9] stood at 1.1 fold.

B7: E 56 R (bispecific antibody)
VH: EVQLVESGGGLVQPGGSLRLSCAASGFTFSNFPMAWVRQAPGKGLEWVATISSSDGTTYYRDSVKGRFTISRDNAKNSLYLQMNSLRAEDTAVYYCARGYYNSPFAYWGQGTLVTVSSASTKGPEVQLVESGGGLVQPGGSLRLSCAASGYTFTNYGMNWVRQAPGKGLEWVGWINTYTGRPTYAADFKRRFTFSLDTSKSTAYLQMNSLRAEDTAVYYCAKYPHYYGSSHWYFDVWGQGTLVTVSS
VL: DIQMTQSPSSLSASVGDRVTITCRASEDIYSNLAWYQQKPGKAPKLLIYDTNNLADGVPSRFSGSGSGTDFTLTISSLQPEDFATYYCQQYNNYPPTFGQGTKLEIKRTVAAPDIQMTQSPSSLSASVGDRVTITCSASQDISNYLNWYQQKPGKAPKVLIYFTSSLHSGVPSRFSGSGSGTDFTLTISSLQPEDFATYYCQQYSTVPWTFGQGTKVEIK
notes: also called SS DLL4-VEGF DVD-Ig variant E56R
For B7, the “Affinity relative to WT” value in assay [9] was 0.9 fold.

B8: E 56 W (bispecific antibody)
VH: EVQLVESGGGLVQPGGSLRLSCAASGFTFSNFPMAWVRQAPGKGLEWVATISSSDGTTYYRDSVKGRFTISRDNAKNSLYLQMNSLRAEDTAVYYCARGYYNSPFAYWGQGTLVTVSSASTKGPEVQLVESGGGLVQPGGSLRLSCAASGYTFTNYGMNWVRQAPGKGLEWVGWINTYTGWPTYAADFKRRFTFSLDTSKSTAYLQMNSLRAEDTAVYYCAKYPHYYGSSHWYFDVWGQGTLVTVSS
VL: DIQMTQSPSSLSASVGDRVTITCRASEDIYSNLAWYQQKPGKAPKLLIYDTNNLADGVPSRFSGSGSGTDFTLTISSLQPEDFATYYCQQYNNYPPTFGQGTKLEIKRTVAAPDIQMTQSPSSLSASVGDRVTITCSASQDISNYLNWYQQKPGKAPKVLIYFTSSLHSGVPSRFSGSGSGTDFTLTISSLQPEDFATYYCQQYSTVPWTFGQGTKVEIK
notes: also called SS DLL4-VEGF DVD-Ig variant E56W
As to B8, in [9], the “Affinity relative to WT” value was determined as 0.6 fold.

Usually Kd stands for the concentration at which binding is half-saturated. For orientation: koff means the rate constant with which the complex falls apart. As a reminder, the kon is the second-order rate constant of association.
